B1: Charged multivesicular body protein 4a (Homo sapiens), Q9BY43 (parent)
chain: MSGLGRLFGKGKKEKGPTPEEAIQKLKETEKILIKKQEFLEQKIQQELQTAKKYGTKNKRAALQALRRKKRFEQQLAQTDGTLSTLEFQREAIENATTNAEVLRTMELAAQSMKKAYQDMDIDKVDELMTDITEQQEVAQQISDAISRPMGFGDDVDEDELLEELEELEQEELAQELLNVGDKEEEPSVKLPSVPSTHLPAGPAPKVDEDEEALKQLAEWVS
partner: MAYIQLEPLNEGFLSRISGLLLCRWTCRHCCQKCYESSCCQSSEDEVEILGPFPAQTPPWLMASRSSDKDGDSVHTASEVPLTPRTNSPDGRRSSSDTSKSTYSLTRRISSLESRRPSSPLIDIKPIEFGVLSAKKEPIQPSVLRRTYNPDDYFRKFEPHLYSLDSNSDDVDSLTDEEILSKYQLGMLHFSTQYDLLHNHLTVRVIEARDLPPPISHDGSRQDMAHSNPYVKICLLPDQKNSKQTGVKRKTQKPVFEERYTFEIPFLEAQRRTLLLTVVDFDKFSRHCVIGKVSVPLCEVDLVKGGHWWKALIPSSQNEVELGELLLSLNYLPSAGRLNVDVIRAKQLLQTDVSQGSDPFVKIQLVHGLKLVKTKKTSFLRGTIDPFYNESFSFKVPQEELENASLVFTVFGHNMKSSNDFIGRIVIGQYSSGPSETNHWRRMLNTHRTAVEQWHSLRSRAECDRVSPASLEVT
B2: Ceramide transfer protein (Homo sapiens), Q9Y5P4 (parent)
chain: MSDNQSWNSSGSEEDPETESGPPVERCGVLSKWTNYIHGWQDRWVVLKNNALSYYKSEDETEYGCRGSICLSKAVITPHDFDECRFDISVNDSVWYLRAQDPDHRQQWIDAIEQHKTESGYGSESSLRRHGSMVSLVSGASGYSATSTSSFKKGHSLREKLAEMETFRDILCRQVDTLQKYFDACADAVSKDELQRDKVVEDDEDDFPTTRSDGDFLHSTNGNKEKLFPHVTPKGINGIDFKGEAITFKATTAGILATLSHCIELMVKREDSWQKRLDKETEKKRRTEEAYKNAMTELKKKSHFGGPDYEEGPNSLINEEEFFDAVEAALDRQDKIEEQSQSEKVRLHWPTSLPSGDAFSSVGTHRFVQKPYSRSSSMSSIDLVSASDDVHRFSSQVEEMVQNHMTYSLQDVGGDANWQLVVEEGEMKVYRREVEENGIVLDPLKATHAVKGVTGHEVCNYFWNVDVRNDWETTIENFHVVETLADNAIIIYQTHKRVWPASQRDVLYLSVIRKIPALTENDPETWIVCNFSVDHDSAPLNNRCVRAKINVAMICQTLVSPPEGNQEISRDNILCKITYVANVNPGGWAPASVLRAVAKREYPKFLKRFTSYVQEKTAGKPILF
B3: UBX domain-containing protein 6 (Homo sapiens), Q9BZV1 (parent)
chain: MKKFFQEFKADIKFKSAGPGQKLKESVGEKAHKEKPNQPAPRPPRQGPTNEAQMAAAAALARLEQKQSRAWGPTSQDTIRNQVRKELQAEATVSGSPEAPGTNVVSEPREEGSAHLAVPGVYFTCPLTGATLRKDQRDACIKEAILLHFSTDPVAASIMKIYTFNKDQDRVKLGVDTIAKYLDNIHLHPEEEKYRKIKLQNKVFQERINCLEGTHEFFEAIGFQKVLLPAQDQEDPEEFYVLSETTLAQPQSLERHKEQLLAAEPVRAKLDRQRRVFQPSPLASQFELPGDFFNLTAEEIKREQRLRSEAVERLSVLRTKAMREKEEQRGLRKYNYTLLRVRLPDGCLLQGTFYARERLGAVYGFVREALQSDWLPFELLASGGQKLSEDENLALNECGLVPSALLTFSWDMAVLEDIKAAGAEPDSILKPELLSAIEKLL
partner: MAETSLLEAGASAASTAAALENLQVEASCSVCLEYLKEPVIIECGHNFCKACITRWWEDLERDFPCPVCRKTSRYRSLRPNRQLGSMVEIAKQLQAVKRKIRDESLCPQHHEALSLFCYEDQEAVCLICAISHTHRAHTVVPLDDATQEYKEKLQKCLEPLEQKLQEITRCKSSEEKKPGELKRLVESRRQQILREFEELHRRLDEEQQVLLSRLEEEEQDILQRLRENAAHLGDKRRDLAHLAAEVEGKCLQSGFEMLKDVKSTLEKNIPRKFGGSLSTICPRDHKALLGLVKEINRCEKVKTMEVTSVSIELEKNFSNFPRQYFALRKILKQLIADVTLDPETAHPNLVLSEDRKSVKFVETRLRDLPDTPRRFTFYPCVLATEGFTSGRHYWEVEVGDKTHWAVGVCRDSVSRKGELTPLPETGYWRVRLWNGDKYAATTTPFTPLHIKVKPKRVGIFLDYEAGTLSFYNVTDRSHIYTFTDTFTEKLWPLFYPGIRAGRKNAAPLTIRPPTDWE
B4: Alpha-taxilin (Homo sapiens), P40222 (parent)
chain: MKNQDKKNGAAKQSNPKSSPGQPEAGPEGAQERPSQAAPAVEAEGPGSSQAPRKPEGAQARTAQSGALRDVSEELSRQLEDILSTYCVDNNQGGPGEDGAQGEPAEPEDAEKSRTYVARNGEPEPTPVVNGEKEPSKGDPNTEEIRQSDEVGDRDHRRPQEKKKAKGLGKEITLLMQTLNTLSTPEEKLAALCKKYAELLEEHRNSQKQMKLLQKKQSQLVQEKDHLRGEHSKAVLARSKLESLCRELQRHNRSLKEEGVQRAREEEEKRKEVTSHFQVTLNDIQLQMEQHNERNSKLRQENMELAERLKKLIEQYELREEHIDKVFKHKDLQQQLVDAKLQQAQEMLKEAEERHQREKDFLLKEAVESQRMCELMKQQETHLKQQLALYTEKFEEFQNTLSKSSEVFTTFKQEMEKMTKKIKKLEKETTMYRSRWESSNKALLEMAEEKTVRDKELEGLQVKIQRLEKLCRALQTERNDLNKRVQDLSAGGQGSLTDSGPERRPEGPGAQAPSSPRVTEAPCYPGAPSTEASGQTGPQEPTSARA
partner: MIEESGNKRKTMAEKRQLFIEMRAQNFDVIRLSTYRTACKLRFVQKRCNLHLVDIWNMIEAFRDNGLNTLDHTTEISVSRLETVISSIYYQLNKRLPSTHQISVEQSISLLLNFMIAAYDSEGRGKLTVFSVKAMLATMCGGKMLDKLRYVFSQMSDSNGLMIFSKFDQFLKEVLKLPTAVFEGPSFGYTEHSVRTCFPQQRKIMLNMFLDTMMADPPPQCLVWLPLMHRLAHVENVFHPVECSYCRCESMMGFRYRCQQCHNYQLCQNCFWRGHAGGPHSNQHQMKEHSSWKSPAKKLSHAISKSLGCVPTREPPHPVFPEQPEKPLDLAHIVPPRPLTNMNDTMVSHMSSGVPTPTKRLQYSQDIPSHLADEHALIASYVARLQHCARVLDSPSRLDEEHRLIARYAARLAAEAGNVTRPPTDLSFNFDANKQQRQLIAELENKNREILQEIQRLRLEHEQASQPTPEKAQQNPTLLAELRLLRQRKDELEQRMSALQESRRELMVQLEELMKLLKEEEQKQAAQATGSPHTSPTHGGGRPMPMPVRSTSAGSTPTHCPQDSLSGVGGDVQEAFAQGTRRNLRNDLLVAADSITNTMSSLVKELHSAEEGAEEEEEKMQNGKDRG
B5: Tektin-4 (Homo sapiens), Q8WW24 (parent)
chain: MAQTVPPCELPCKEYDVARNTGAYTSSGLATASFRTSKYLLEEWFQNCYARYHQAFADRDQSERQRHESQQLATETQALAQRTQQDSTRTVGERLQDTHSWKSELQREMEALAAETNLLLAQKQRLERALDATEVPFSITTDNLQCRERREHPNLVRDHVETELLKEAELIRNIQELLKRTIMQAVSQIRLNREHKETCEMDWSDKMEAYNIDETCGRHHSQSTEVQAHPYSTTFQESASTPETRAKFTQDNLCRAQRERLASANLRVLVDCILRDTSEDLRLQCDAVNLAFGRRCEELEDARYKLHHHLHKTLREITDQEHNVAALKQAIKDKEAPLHVAQTRLYLRSHRPNMELCRDAAQFRLLSEVEELNMSLTALREKLLEAEQSLRNLEDIHMSLEKDIAAMTNSLFIDRQKCMAHRTRYPTILQLAGYQ

Variants of: B1
Conditions: with syt17_human SYT17, Q9BSW7

| Variant | effect of a mutation on the interaction |
| --- | --- |
| G153R | with no effect |

Variants of: B2
Conditions: with rtn4_human RTN4, Q9NQC3
Sequence of rtn4_human RTN4, Q9NQC3 (Q9NQC3 whole entry): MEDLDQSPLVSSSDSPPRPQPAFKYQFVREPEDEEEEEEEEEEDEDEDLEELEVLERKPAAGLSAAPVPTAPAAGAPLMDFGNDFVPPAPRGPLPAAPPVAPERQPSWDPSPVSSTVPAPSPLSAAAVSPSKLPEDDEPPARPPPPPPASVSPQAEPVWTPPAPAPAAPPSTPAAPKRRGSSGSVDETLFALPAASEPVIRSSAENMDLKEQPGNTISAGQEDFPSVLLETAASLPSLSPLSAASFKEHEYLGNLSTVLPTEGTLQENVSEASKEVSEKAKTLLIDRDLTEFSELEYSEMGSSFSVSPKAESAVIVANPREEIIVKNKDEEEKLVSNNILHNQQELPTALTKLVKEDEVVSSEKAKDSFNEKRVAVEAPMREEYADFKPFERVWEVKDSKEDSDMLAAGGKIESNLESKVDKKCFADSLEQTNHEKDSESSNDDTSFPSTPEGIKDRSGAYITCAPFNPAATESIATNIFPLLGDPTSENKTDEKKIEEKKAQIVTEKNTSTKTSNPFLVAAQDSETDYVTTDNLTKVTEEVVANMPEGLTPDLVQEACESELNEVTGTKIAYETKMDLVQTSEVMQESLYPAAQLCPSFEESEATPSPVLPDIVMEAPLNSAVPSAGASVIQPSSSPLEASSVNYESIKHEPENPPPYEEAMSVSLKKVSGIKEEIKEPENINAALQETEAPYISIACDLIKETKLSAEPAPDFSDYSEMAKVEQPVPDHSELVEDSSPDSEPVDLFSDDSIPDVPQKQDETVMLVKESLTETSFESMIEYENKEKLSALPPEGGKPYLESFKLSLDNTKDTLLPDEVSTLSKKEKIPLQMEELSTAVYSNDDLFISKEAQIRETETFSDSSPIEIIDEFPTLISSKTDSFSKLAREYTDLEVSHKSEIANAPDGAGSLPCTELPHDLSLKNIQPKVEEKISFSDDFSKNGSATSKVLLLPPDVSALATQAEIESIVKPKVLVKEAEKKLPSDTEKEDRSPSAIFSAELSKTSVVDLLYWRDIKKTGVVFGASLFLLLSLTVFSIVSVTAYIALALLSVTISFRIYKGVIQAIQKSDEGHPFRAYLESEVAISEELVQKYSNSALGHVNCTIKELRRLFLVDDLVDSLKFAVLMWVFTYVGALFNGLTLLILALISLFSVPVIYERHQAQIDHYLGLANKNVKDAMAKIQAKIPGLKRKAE

| Variant | effect of a mutation on the interaction |
| --- | --- |
| R128H | with no effect |

Variants of: B2
Conditions: with rtn3_human RTN3, O95197
Sequence of rtn3_human RTN3, O95197 (O95197 whole entry): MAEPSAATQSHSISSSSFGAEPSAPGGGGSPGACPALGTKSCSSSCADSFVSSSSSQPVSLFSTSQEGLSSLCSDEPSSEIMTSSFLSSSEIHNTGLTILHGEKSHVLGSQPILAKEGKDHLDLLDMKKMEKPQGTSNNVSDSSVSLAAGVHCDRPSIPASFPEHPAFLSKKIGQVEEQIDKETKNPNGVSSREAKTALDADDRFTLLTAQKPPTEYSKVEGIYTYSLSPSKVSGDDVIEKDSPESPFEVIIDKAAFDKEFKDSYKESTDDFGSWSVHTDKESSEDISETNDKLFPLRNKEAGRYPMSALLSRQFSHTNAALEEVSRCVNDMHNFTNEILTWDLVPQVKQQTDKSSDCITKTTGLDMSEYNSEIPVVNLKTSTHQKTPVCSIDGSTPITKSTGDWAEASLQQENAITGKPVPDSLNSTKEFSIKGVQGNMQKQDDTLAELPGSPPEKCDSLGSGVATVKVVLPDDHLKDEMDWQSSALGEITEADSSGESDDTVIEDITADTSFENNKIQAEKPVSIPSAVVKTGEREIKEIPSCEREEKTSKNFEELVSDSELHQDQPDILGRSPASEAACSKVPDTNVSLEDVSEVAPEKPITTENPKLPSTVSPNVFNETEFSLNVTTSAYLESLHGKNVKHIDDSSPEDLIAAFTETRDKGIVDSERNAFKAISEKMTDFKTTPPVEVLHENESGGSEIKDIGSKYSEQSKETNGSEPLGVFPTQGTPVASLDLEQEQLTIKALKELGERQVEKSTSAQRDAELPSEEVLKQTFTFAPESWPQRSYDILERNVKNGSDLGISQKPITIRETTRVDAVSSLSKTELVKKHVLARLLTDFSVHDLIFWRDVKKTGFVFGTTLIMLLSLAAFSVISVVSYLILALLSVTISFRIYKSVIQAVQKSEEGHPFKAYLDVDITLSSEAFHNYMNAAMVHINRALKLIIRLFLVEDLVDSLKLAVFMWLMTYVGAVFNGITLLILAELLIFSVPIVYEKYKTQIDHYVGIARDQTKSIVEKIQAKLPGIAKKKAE

| Variant | effect of a mutation on the interaction |
| --- | --- |
| R128H | with no effect |

Variants of: B2
Conditions: with ar6p1_human ARL6IP1, Q15041
Sequence of ar6p1_human ARL6IP1, Q15041 (Q15041 whole entry): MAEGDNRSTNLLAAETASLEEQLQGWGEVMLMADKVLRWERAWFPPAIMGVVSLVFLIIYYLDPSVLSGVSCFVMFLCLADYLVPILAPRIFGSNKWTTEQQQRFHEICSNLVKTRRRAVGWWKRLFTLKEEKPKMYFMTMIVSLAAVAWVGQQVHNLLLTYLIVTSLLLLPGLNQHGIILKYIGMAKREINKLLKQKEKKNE

| Variant | effect of a mutation on the interaction |
| --- | --- |
| R128H | with no effect |

Variants of: B3
Conditions: with tri39_human TRIM39, Q9HCM9

| Variant | effect of a mutation on the interaction |
| --- | --- |
| A361V | with no effect |

Variants of: B4
Conditions: with dtnb_human DTNB

| Variant | effect of a mutation on the interaction |
| --- | --- |
| R154G | disrupting interaction strength |

Variants of: B5
Conditions: with trip6_human TRIP6, Q15654
Sequence of trip6_human TRIP6, Q15654 (Q15654 whole entry): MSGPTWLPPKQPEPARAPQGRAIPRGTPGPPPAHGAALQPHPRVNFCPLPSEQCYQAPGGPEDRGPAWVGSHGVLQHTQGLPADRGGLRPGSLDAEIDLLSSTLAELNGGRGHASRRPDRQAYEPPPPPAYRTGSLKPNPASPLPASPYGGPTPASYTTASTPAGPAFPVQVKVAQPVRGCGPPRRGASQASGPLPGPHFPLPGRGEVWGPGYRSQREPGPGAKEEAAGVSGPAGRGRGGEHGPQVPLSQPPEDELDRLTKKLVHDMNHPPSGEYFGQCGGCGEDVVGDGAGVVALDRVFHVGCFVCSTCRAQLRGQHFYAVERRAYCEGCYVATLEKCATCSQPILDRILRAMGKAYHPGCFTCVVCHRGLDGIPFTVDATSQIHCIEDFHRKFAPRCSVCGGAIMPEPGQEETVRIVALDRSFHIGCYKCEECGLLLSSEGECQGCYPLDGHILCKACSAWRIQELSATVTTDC

| Variant | effect of a mutation on the interaction |
| --- | --- |
| R82C | with no effect |
| T83M | with no effect |
| R64W | with no effect |
| C272S | with no effect |
| S100G | with no effect |
| M374V | with no effect |

Variants of: B5
Conditions: with maga4_human MAGEA4, P43358
Sequence of maga4_human MAGEA4, P43358 (P43358 whole entry): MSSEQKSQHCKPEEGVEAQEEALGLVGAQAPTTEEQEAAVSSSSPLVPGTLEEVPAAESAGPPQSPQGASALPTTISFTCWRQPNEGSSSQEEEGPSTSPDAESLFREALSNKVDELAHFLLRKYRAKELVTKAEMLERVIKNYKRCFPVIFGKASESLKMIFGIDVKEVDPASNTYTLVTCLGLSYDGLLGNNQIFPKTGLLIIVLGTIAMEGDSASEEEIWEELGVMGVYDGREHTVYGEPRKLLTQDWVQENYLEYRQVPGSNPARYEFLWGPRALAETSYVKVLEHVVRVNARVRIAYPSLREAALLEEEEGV

| Variant | effect of a mutation on the interaction |
| --- | --- |
| R82C | with no effect |
| T83M | with no effect |
| R64W | with no effect |
| C272S | with no effect |
| S100G | with no effect |
| M374V | with no effect |

Variants of: B5
Conditions: with atg5_human ATG5, Q9H1Y0
Sequence of atg5_human ATG5, Q9H1Y0 (Q9H1Y0 whole entry): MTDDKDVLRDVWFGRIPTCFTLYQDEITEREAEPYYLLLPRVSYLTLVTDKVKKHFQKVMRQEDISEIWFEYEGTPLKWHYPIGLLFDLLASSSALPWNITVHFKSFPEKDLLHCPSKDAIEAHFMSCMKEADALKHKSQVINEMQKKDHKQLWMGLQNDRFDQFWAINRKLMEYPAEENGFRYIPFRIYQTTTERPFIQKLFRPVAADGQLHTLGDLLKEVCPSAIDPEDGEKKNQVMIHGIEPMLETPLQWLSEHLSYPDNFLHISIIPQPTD

| Variant | effect of a mutation on the interaction |
| --- | --- |
| R82C | with no effect |
| A80V | with no effect |
| D403N | with no effect |
| S100G | with no effect |
| M374T | with no effect |
| M374V | with no effect |

Source: IntAct's records for PubMed 31515488
